Test results taken from the RNAGym collection of RNA variant scans (doi:10.1073/pnas.2313332121).
This sample holds only a part of the variants without activity.

B1: TPR 5TU (parent)
chain: GGAUCUUCUCGAUCUAACAAAAAAGACAAAUCUGCCACAAAGCUUGAGAGCAUCUUCGGAUGCAGAGGCGGCAGCCUUCGGUGGCGCGAUAGCGCCAACGUUCUCAACUAUGACACGCAAAACGCGUGCUCCGUUGAAUGGAGUUUAUCAUG

Variants of: B1
Assay: polymerase ribozyme fitness, log enrichment relative to wild type (log ratio); higher = more active; in vitro selection for triplet polymerase activity
Summary of the method: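 Both subunits of a heterodimeric triplet polymerase ribozyme were given their own mutant library, built by PCR and transcribed. Each library was annealed with a biotinylated primer, the partner subunit and triplets, incubated frozen at −7 °C, and its extended constructs gel-excised, captured on streptavidin beads and amplified by RT-PCR, all in one round done in triplicate. Fitness is the logarithm of genotype enrichment relative to wild-type enrichment, with replicates averaged by inverse-variance weighting. That logarithm is base 2, and Illumina-sequenced genotypes needed ≥10 input reads and ≥1 read per output.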

Variant | polymerase ribozyme fitness (log ratio)
GGAUCUUCUCGAUCUAACAAAAAAGACAAAUCUGCCACAAAGCUUGAGAGCAUCUUCGGAUGCAGAGGCGGCAGCCUUCGGUGGCGCGAUACCGCCAACGUUCUCAACUAUGACACGCAAAACGCGUGCUCCGUUGAAUGGUGUUUAUCAUG [G92C A142U] | -2.07
GGAUCUUCUCGAUCUAACAAAAAAGACAAAUCUGCCACAAAGCUUGAGAGCAUCUUCGGAUGCAGAGGCGGCAGCCUUCGGUGGCGCGAUACCGCCAACGGUCUCAACUAUGACACGCAAAACGCGUGCUCCGUUGAAUGGAGUUUAUCAUG [G92C U101G] | -0.874
GGAUCUUCUCGAUCUAACAAAAAAGACAAAUCUGCCACAAAGCUUGAGAGCAUCUUCGGAUGCAGAGGCGGCAGCCUUCGGUGGCGCGAUAUUGCCAACGUUCUCAACUAUGACACGCAAAACGCGUGCUCCGUUGAAUGGAGUUUAUCAUG [G92U C93U] | -2.13
GGAUCUUCUCGAUCUAACAAAAAAGACAAAUCUGCCACAAAGCUUGAGAGCAUCUUCGGAUGCAGAGGCGGCAGCCUUCGGUGGCGCGAUACCGCCAACGUUCUCAACUAUGACACGCAAAACUCGUGCUCCGUUGAAUGGAGUUUAUCAUU [G92C G124U G152U] | -3.69
GGAUCUUCUCGAUCUAACAAAAAAGACAAAUCUGCCACAAAGCUUGAGAGCAUCUUCGGAUGCAGAGGCGGCAGCCUUCGGUGGCGCGAUACCGCCAACGUUCUCAACUAUGACUCGCAAAACGCGUGCUCCGUUGAAUGGAGUUUAUCAUG [G92C A115U] | -1.86
GGAUCUUCUCGAUCUAACAAAAAAGACAAAUCUGCCACAAAGCUUGAGAGCAUCUUCGGAUGCAGAGGCGGCAGCCUUCGGUGGCGCGAUACCGCCAACGGUCUCAACUAUGACACCCAAAACGCGUGCUCCGUUGAAUGGAGUUUAUCAUG [G92C U101G G117C] | -1.52
GGAUCUUCUCGAUCUAACAAAAAAGACAAAUCUGCCACAAAGCUUGAGAGCAUCUUCGGAUGCAGAGGCGGCAGCCUUCGGUGGCGCGAUAUAGCCAACGUUCUCAACUAUGACACGCAAAACGCGUGCUCCUUUGAAUAGAGUUUAUCAUG [G92U C93A G133U G140A] | ≤ -4.2
GGAUCUUCUCGAUCUAACAAAAAAGACAAAUCUGCCACAAAGCUUGAGAGCAUCUUCGGAUGCAGAGGCGGCAGCCUUCGGUGGCGCGAUACCGCCAACGUUCUCAACUAUGACACGCAAAACGCGUGCUCCGUUGAAUGAAGUUUAUCAUG [G92C G141A] | -0.778
GGAUCUUCUCGAUCUAACAAAAAAGACAAAUCUGCCACAAAGCUUGAGAGCAUCUUCGGAUGCAGAGGCGGCAGCCUUCGGUGGCGCGAUACCGCCAACGUUCUCAACUACGACACGCAAAACGCGUGCUCCGUUGAAUGGAGUUUAUCAUG [G92C U111C] | -3.45
GGAUCUUCUCGAUCUAACAAAAAAGACAAAUCUGCCACAAAGCUUGAGAGCAUCUUCGGAUGCAGAGGCGGCAGCCUUCGGUGGCGCGAUAUCGCCAACGUUCUCAACUAUGACACGCAAAACGCGUGCUCCGUUGAAUGGAGUUUAUCAUG [G92U] | -0.671
GGAUCUUCUCGAUCUAACAAAAAAGACAAAUCUGCCACAAAGCUUGAGAGCAUCUUCGGAUGCAGAGGCGGCAGCCUUCGGUGGCGCGAUACCGCCAACGUUCUCAACUAUGACACGCAAAACGCGUGCUCCGUUGAAUGGAGUUUAUCAUG [G92C] | -0.459
GGAUCUUCUCGAUCUAACAAAAAAGACAAAUCUGCCACAAAGCUUGAGAGCAUCUUCGGAUGCAGAGGCGGCAGCCUUCGGUGGCGCGAUACCGCCAACGUUCUCAACUAUGACACGCAAAACGCGUGCUCUGUUGAAUGGAGUUUAUCAUG [G92C C132U] | -1.6
GGAUCUUCUCGAUCUAACAAAAAAGACAAAUCUGCCACAAAGCUUGAGAGCAUCUUCGGAUGCAGAGGCGGCAGCCUUCGGUGGCGCGAUAUCGCCAACGUUCUCAACUAUGACACGCAAAACGCGUGCUCCGUUGGAUGGAGUCUAUCAUG [G92U A137G U145C] | -1.11
GGAUCUUCUCGAUCUAACAAAAAAGACAAAUCUGCCACAAAGCUUGAGAGCAUCUUCGGAUGCAGAGGCGGCAGCCUUCGGUGGCGCGAUAUCGCCAACGUUCUCGACUAUGACACGCAAAACGCGUGCUCCGUUGAAUGGAGUUUAUCAUG [G92U A106G] | -0.318
GGAUCUUCUCGAUCUAACAAAAAAGACAAAUCUGCCACAAAGCUUGAGAGCAUCUUCGGAUGCAGAGGCGGCAGCCUUCGGUGGCGCGAUAUCGCCAACGUUCUCCACUAUGACACGCAAAACGCGUGCUCCGUUGAAUGGAGUUUAUCAUG [G92U A106C] | -0.0112
GGAUCUUCUCGAUCUAACAAAAAAGACAAAUCUGCCACAAAGCUUGAGAGCAUCUUCGGAUGCAGAGGCGGCAGCCUUCGGUGGCGCGAUAUCGCCAACGUUCUCAUCUAUGACACGCAAAACGCGUGCUCCGUUGAAUGGAGUUUAUCAUG [G92U A107U] | -3.2
GGAUCUUCUCGAUCUAACAAAAAAGACAAAUCUGCCACAAAGCUUGAGAGCAUCUUCGGAUGCAGAGGCGGCAGCCUUCGGUGGCGCGAUACCGCCAACGUUCUCAACUAUGACACGCAAAACGCGUGCUCCGUUGAAAGGAGUUUAUCAUG [G92C U139A] | -4.2
GGAUCUUCUCGAUCUAACAAAAAAGACAAAUCUGCCACAAAGCUUGAGAGCAUCUUCGGAUGCAGAGGCGGCAGCCUUCGGUGGCGCGAUAUCGCCCACGUUCUCAACUAUGACACGCAAAACGCGUGCUCCGUUGAAUGGAGUUUAUCAUG [G92U A97C] | -0.00996
GGAUCUUCUCGAUCUAACAAAAAAGACAAAUCUGCCACAAAGCUUGAGAGCAUCUUCGGAUGCAGAGGCGGCAGCCUUCGGUGGCGCGAUAUCGCCAACGUUCUCAACUAUGCCACGCAAAACGCGUGCUCCGUUGAAUGGAGUUUAUCAUG [G92U A113C] | -2.78

Variant | polymerase ribozyme fitness (log ratio)
GGAUCUUCUCGAUCUAACAAAAAAGACAAAUCUGCCACAAAGCUUGAGAGCAUCUUCGGAUGCAGAGGCGGCAGCCUUCGGUGGCGCGAUACCGCCAACGUUCUCAACUAUGACACGCAAAACGCGUGCUCCGUUGAAUGGAGUUAAUCAUG [G92C U146A] | -0.323
GGAUCUUCUCGAUCUAACAAAAAAGACAAAUCUGCCACAAAGCUUGAGAGCAUCUUCGGAUGCAGAGGCGGCAGCCUUCGGUGGCGCGAUACCGCCAACGUUCUCAACUAUGACACGCAAAACUCGUGUUCCGUUGAGGGGAGUUUAUCAUG [G92C G124U C129U A138G U139G] | ≤ -4.2
GGAUCUUCUCGAUCUAACAAAAAAGACAAAUCUGCCACAAAGCUUGAGAGCAUCUUCGGAUGCAGAGGCGGCAGCCUUCGGUGGCGCGAUAACGCCAACGUUCUCAACUAUGACACGCAAAACGCGUGCUCCGUUGAAUGGAGCUUUUCAUG [G92A U144C A147U] | -3.46
GGAUCUUCUCGAUCUAACAAAAAAGACAAAUCUGCCACAAAGCUUGAGAGCAUCUUCGGAUGCAGAGGCGGCAGCCUUCGGUGGCGCGAUAUCGCCAACGUUCUCAACUAUGACACGCAAAACGCGUGCUCCGUUGACUGGAGUUUAUCAUG [G92U A138C] | -3.95
GGAUCUUCUCGAUCUAACAAAAAAGACAAAUCUGCCACAAAGCUUGAGAGCAUCUUCGGAUGCAGAGGCGGCAGCCUUCGGUGGCGCGAUACCGCCAGCGUUCUCAACUAUGACUCGCAAAACGCGUGCUCCGUUGAAUGGAGUUUAUCAUG [G92C A98G A115U] | -2.44
GGAUCUUCUCGAUCUAACAAAAAAGACAAAUCUGCCACAAAGCUUGAGAGCAUCUUCGGAUGCAGAGGCGGCAGCCUUCGGUGGCGCGAUAUCGACAACGUUCUCAACUAUGACGCGCAAAACGCGUGCUCCGUUGAAUGGAGUUUCUCAUG [G92U C95A A115G A147C] | ≤ -4.2
GGAUCUUCUCGAUCUAACAAAAAAGACAAAUCUGCCACAAAGCUUGAGAGCAUCUUCGGAUGCAGAGGCGGCAGCCUUCGGUGGCGCGAUACCGCCAACGUUAUCAACUAUGACACGCAAAACGCGUGCUCCGUUGAAUGGAGUUUAUCAUG [G92C C103A] | -3.4
GGAUCUUCUCGAUCUAACAAAAAAGACAAAUCUGCCACAAAGCUUGAGAGCAUCUUCGGAUGCAGAGGCGGCAGCCUUCGGUGGCGCGAUAUCGCCAACGUUCUCAACUAUGACCCGCUAAACGCGUGCUCCGUUGAAUCGAGUUUAUCAUG [G92U A115C A119U G140C] | ≤ -4.2
GGAUCUUCUCGAUCUAACAAAAAAGACAAAUCUGCCACAAAGCUUGAGAGCAUCUUCGGAUGCAGAGGCGGCAGCCUUCGGUGGCGCGAUACCGCCAACGUUCUCAACUAUGACACGCAAAACGCGUGCUCCGGUGAAUGGAGUUUAUCAUG [G92C U134G] | -1.68
GGAUCUUCUCGAUCUAACAAAAAAGACAAAUCUGCCACAAAGCUUGAGAGCAUCUUCGGAUGCAGAGGCGGCAGCCUUCGGUGGCGCGAUAACGCCAACGUUCUCAACUAUGACACGCAAAACGCGUGCUCCGUUGAAUGGAGUUUACCAUG [G92A U148C] | -4.02
GGAUCUUCUCGAUCUAACAAAAAAGACAAAUCUGCCACAAAGCUUGAGAGCAUCUUCGGAUGCAGAGGCGGCAGCCUUCGGUGGCGCGAUAUUGCCAACGUUCUCAACUAUGACACGCAAAACGCGUGCUCCGUUGACUGGAGUUUAUCAUG [G92U C93U A138C] | ≤ -4.2
GGAUCUUCUCGAUCUAACAAAAAAGACAAAUCUGCCACAAAGCUUGAGAGCAUCUUCGGAUGCAGAGGCGGCAGCCUUCGGUGGCGCGAUACCGCCAACGUUCUCAACUAUGACACGCAAAACGCGUGCUCCGUGGAAUGGUGUUUAUCAUG [G92C U135G A142U] | -4.1
GGAUCUUCUCGAUCUAACAAAAAAGACAAAUCUGCCACAAAGCUUGAGAGCAUCUUCGGAUGCAGAGGCGGCAGCCUUCGGUGGCGCGAUAACGCCAACGUUCUCAACUAUGACACGCAAAACGCGUGCUCCGUAGAAUGGAGUCUAUCAUG [G92A U135A U145C] | -3.89
GGAUCUUCUCGAUCUAACAAAAAAGACAAAUCUGCCACAAAGCUUGAGAGCAUCUUCGGAUGCAGAGGCGGCAGCCUUCGGUGGCGCGAUACCGCCAACGUUCUGAACUAUGACACGCAAAACGCGUGCUCCGUUGAAUGGAGUUUAUCAUG [G92C C105G] | -2.39
GGAUCUUCUCGAUCUAACAAAAAAGACAAAUCUGCCACAAAGCUUGAGAGCAUCUUCGGAUGCAGAGGCGGCAGCCUUCGGUGGCGCGAUACCGCCAACGUUCUUAACUAUGACACGCAAAACGCGUGCUCCGUUGAAUGGAGUUUAUCAUG [G92C C105U] | -0.217
GGAUCUUCUCGAUCUAACAAAAAAGACAAAUCUGCCACAAAGCUUGAGAGCAUCUUCGGAUGCAGAGGCGGCAGCCUUCGGUGGCGCGAUACCGCCAACGUUCCCAACUAUGACACGCAAAACGCGUGCUCCGUUGAAUGGAGUUUAUCAUG [G92C U104C] | -1.35
GGAUCUUCUCGAUCUAACAAAAAAGACAAAUCUGCCACAAAGCUUGAGAGCAUCUUCGGAUGCAGAGGCGGCAGCCUUCGGUGGCGCGAUACCGCCAACGUUCGCAACUAUGACACGCAAAACGCGUGCUCCGUUGAAUGGAGUUUAUCAUG [G92C U104G] | -1.85
GGAUCUUCUCGAUCUAACAAAAAAGACAAAUCUGCCACAAAGCUUGAGAGCAUCUUCGGAUGCAGAGGCGGCAGCCUUCGGUGGCGCGAUACCGCCAACGUUCUCAACUAUGACAGGCAAAACGCGUGCUCCGUUGAAUGGAGUUUAUCAUG [G92C C116G] | -1.52
GGAUCUUCUCGAUCUAACAAAAAAGACAAAUCUGCCACAAAGCUUGAGAGCAUCUUCGGAUGCAGAGGCGGCAGCCUUCGGUGGCGCGAUAACGCCAACGUUCUCAACUAUGACACGCAAAACGCGGGCUCCGUUGAAUGGAGUUUAUCAUG [G92A U127G] | -3.27
